Experimental data reported in article PMC10128030, “Molecular Characterization of the ClpC AAA+ ATPase in the Biology of Chlamydia trachomatis” (mBio, 2023).
“And” between values parts separate entries of the source, which are not always exact repeats. Equal entries are not always repeated.

Target: the molecule itself
Test: cross-linking; HeLa cells infected with C. trachomatis L2 (wild type or transformants induced at 16 hpi) treated with 0.25 mM DSS in HBSS pH 7.6 on ice at 4°C for at least 1 h; whole-cell lysates on 8% SDS-PAGE, immunoblot with anti-ClpC (endogenous) or anti-6×His (ectopic)

B1: endogenous ClpC of wild-type C. trachomatis serovar L2 (natural protein)
chain: not shown
notes: ClpC AAA+ ATPase of Chlamydia trachomatis serovar L2; monomer of the expected size 95 kDa; source: endogenous, wild-type Ctr L2 in infected HeLa cells, whole-cell lysate
Which “stoichiometry N” value does the source give for B1 here?
Its value is 2 and 6.
